Experiments:
[1] = biological target: pericentrin (Xenopus egg extract) (Xenopus laevis (endogenous in egg extracts)); experiment: quantitative Western blot; details: scale: γ-tubulin molecules per pericentrin molecule
[2] = biological target: γ-tubulin (Xenopus egg extract) (Xenopus laevis (endogenous in egg extracts)) (UniProt P23330); experiment: co-IP

Row | Substance | stoichiometry N [1] | percent of pericentrin co-depleted with γ-tubulin [2]
1 | γ-tubulin (Xenopus egg extract) (from UniProt P23330 1-451) (natural protein) | 30 | –
2 | pericentrin (Xenopus egg extract) (natural protein) | – | 85 to 95%
